The supplement of paper PMC7125110
± gives the standard error. For part of these data: This sample holds only a part of the variants without activity.

B1: glmS ribozyme (parent)
chain: AUAAAAGCGCCAGAACUACAGAAAUGUAGUUGACGAGGAGGAGGUUUAUCGAAUUUUCGGCGGAUGCCUCCAAA

How the values were obtained:
Conditions in all cases: with glucosamine-6-phosphate
glucosamine-6-phosphate [1] = variants of: B1; assay: kcat; higher = faster cleavage; RNA array
How it was run: (§1)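 Barcoded ribozyme variants on sequenced MiSeq chips were transcribed in situ by E. coli RNA polymerase and followed at 37 °C through a hybridised Cy3 probe. Glucosamine-6-phosphate at 40 μM to 10 mM in HEPES/KCl/Mg(OAc)2 buffer was flowed in, and tiles were imaged over ~14 h. Signals were normalised to baseline and to non-cleaving reference variants, and per-tile medians were fit to one- or two-exponential decays to give kobs. Weighted Michaelis–Menten fits across concentrations gave kcat and KM.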

glucosamine-6-phosphate [2] = variants of: B1; assay: KM; higher = weaker cofactor use; RNA array
How it was run: as §1

glucosamine-6-phosphate [3] = variants of: B1; assay: self-cleavage kobs at 640 uM GlcN6P; higher = faster cleavage; RNA array
How it was run: as §1

glucosamine-6-phosphate [4] = variants of: B1; assay: self-cleavage kobs at 2500 uM GlcN6P; higher = faster cleavage; RNA array
How it was run: as §1

glucosamine-6-phosphate [5] = variants of: B1; assay: self-cleavage kobs at 10000 uM GlcN6P; higher = faster cleavage; RNA array
How it was run: as §1

glucosamine-6-phosphate [6] = variants of: B1; assay: self-cleavage kobs at 40 uM GlcN6P; higher = faster cleavage; RNA array
How it was run: as §1

glucosamine-6-phosphate [7] = variants of: B1; assay: self-cleavage kobs at 160 uM GlcN6P; higher = faster cleavage; RNA array
How it was run: as §1

| Variant | kcat (glucosamine-6-phosphate [1]) [s⁻¹] | KM (glucosamine-6-phosphate [2]) [µM] | self-cleavage kobs at 640 uM GlcN6P (glucosamine-6-phosphate [3]) [s⁻¹] | self-cleavage kobs at 2500 uM GlcN6P (glucosamine-6-phosphate [4]) [s⁻¹] | self-cleavage kobs at 10000 uM GlcN6P (glucosamine-6-phosphate [5]) [s⁻¹] | self-cleavage kobs at 40 uM GlcN6P (glucosamine-6-phosphate [6]) [s⁻¹] | self-cleavage kobs at 160 uM GlcN6P (glucosamine-6-phosphate [7]) [s⁻¹] |
| --- | --- | --- | --- | --- | --- | --- | --- |
| G13U U46G | 0.000174 ± 4.9e-06 | 1460 ± 120 | 5.44e-05 ± 1.5e-05 | 0.000107 ± 2.4e-05 | 0.000153 ± 2.1e-05 | – | – |
| A12C G13U | 0.000279 ± 2.1e-05 | 6200 ± 850 | 2.43e-05 ± 6.8e-06 | 8.18e-05 ± 1e-05 | 0.000172 ± 1.6e-05 | – | – |
| A15G C16U C68G | 5.74e-05 ± 2.6e-05 | – | 8.06e-05 ± 1.8e-05 | 8.91e-05 ± 3e-05 | – | – | – |
| A33G C68A | 1.39e-05 ± 1.5e-06 | – | – | – | – | – | – |
| A6G U54A | 0.000561 ± 5.2e-05 | 1600 ± 440 | 0.000143 ± 5.7e-05 | 0.000387 ± 0.00011 | 0.000476 ± 7.7e-05 | – | – |
| A14U U31A | 0.0165 ± 0.0068 | – | 0.00488 ± 0.00072 | 0.00761 ± 0.0014 | 0.028 ± 0.0038 | 0.000492 ± 4e-05 | 0.00191 ± 0.00038 |
| U55G C58G | 0.000161 ± 1.7e-05 | 6790 ± 1400 | – | 4.5e-05 ± 8.6e-06 | 9.57e-05 ± 1.1e-05 | – | – |
| G37C C61A | < 1e-05 | – | – | – | – | – | – |
| A6C C16U | 0.000207 ± 4.9e-05 | – | – | 3.13e-05 ± 9e-06 | 8.88e-05 ± 1.1e-05 | – | – |
| A42U C70A | 0.00013 ± 6.8e-06 | 813 ± 290 | – | 9.98e-05 ± 1.2e-05 | 0.00012 ± 9.1e-06 | – | – |
| A14U G44A | 6.83e-05 ± 2.6e-06 | 2730 ± 310 | – | 3.21e-05 ± 6.8e-06 | 5.38e-05 ± 6.7e-06 | – | < 1e-05 |
| A33C G66A | 0.000291 ± 4.1e-05 | 2470 ± 580 | 6.35e-05 ± 9.2e-06 | 0.00013 ± 2.3e-05 | 0.000257 ± 4.6e-05 | – | – |
| U46A U55G | 0.0019 ± 0.00044 | 1350 ± 440 | 0.000893 ± 0.00011 | 0.001 ± 0.00022 | 0.00169 ± 0.00022 | 5.8e-05 ± 7.5e-06 | 0.000169 ± 2.3e-05 |
| G29A U31A | 0.00193 ± 0.00042 | 1110 ± 410 | 0.00109 ± 0.00022 | 0.00129 ± 0.00029 | 0.00165 ± 0.00037 | 6.33e-05 ± 1.9e-05 | 0.000184 ± 7.5e-05 |
| U49G U55A | 0.00113 ± 0.0001 | 2740 ± 370 | 0.000213 ± 2.8e-05 | 0.000539 ± 5.5e-05 | 0.000891 ± 0.00013 | – | 6.19e-05 ± 9.7e-06 |
| G51U C68U | < 1e-05 | – | – | – | – | – | – |
| U31C A53U | 0.00494 ± 0.0007 | 2460 ± 510 | 0.000925 ± 8.8e-05 | 0.00236 ± 0.00022 | 0.00421 ± 0.00036 | 9.39e-05 ± 8.5e-06 | 0.000269 ± 4.7e-05 |
